Experiments:
biotinylated NRP1-b1b2 = target: T1, biotinylated NRP1-b1b2 (Homo sapiens, UniProt O14786); test: FACS of yeast surface-displayed clones binding biotinylated NRP1-b1b2; conditions: yeast surface display, compared with A22p
T1 construct: biotin (chemical label on amines, Sulfo-NHS-LC-biotin); made in house
Description: […] In addition, in the MACS and FACS processes, non-biotinylated NRP2-b1b2 was used as a competitive protein for biotinylated NRP1-b1b2 at a 10-fold higher concentration, and individual clones that bind to NRP1-b1b2 were selected.

[1] = target: T2, NRP1-b1b2 (273-586) protein (Homo sapiens, UniProt O14786); test: Competitive ELISA with VEGF165A / RPARPAR on NRP1-b1b2; assay type: binding
T2 construct: made in house
T2 sequence (O14786 273-586): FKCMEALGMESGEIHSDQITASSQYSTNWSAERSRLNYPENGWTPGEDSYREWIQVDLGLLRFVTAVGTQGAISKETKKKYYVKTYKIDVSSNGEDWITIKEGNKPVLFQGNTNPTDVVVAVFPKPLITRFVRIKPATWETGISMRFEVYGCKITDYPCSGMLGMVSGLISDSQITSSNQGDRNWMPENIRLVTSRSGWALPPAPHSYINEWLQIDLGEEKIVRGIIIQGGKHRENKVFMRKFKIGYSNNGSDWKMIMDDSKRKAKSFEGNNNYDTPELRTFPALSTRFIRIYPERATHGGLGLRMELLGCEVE
Experimental: In order to evaluate competitive binding of the TPP11 peptide, which binds specifically to NRP1 without binding to NRP2, and VEGF165A and a RPARPAR peptide, known to bind to the arginine-binding pocket of the NRP1-b1 domain, competitive ELISA was performed.
Specifically, binding NRP1-b1b2 (273-586) protein to each well of a 96-well EIA/RIA plate or a 96-well EIA/RIA black plate (COSTAR Corning In., USA) at room temperature for […], is followed by washing three times with 0.1% PBST (0.1% Tween20, pH 7.4, 137 mM NaCl, 10 mM Phosphate, 2.7 mM KCl, SIGMA-ALDRICH co., USA) for 10 minutes. After binding with 5% skim milk (5% Skim milk, pH 7.4, 137 mM NaCl, 10 mM Phosphate, 2.7 mM KCl, SIGMA-ALDRICH co., USA) for 1 hour, each well was washed three times with 0.1% PBST (0.1% Tween20, pH 7.4, 137 mM NaCl, 10 mM Phosphate, 2.7 mM KCl, SIGMA-ALDRICH co., USA) for 10 minutes. […] Then, each mixture was incubated with AP-conjugated anti-human antibody (alkaline phosphatase-conjugated anti-human mAb, Sigma, USA), and then reacted with pNPP ([…], SIGMA-ALDRICH co., USA), and the absorbance at 405 nm was measured.

[2] = target: T2, NRP1-b1b2 (273-586) protein; test: ELISA binding to NRP1-b1b2; conditions: synthetic peptide not fused to Fc, 100 nM
Experimental: The binding affinities of purified Fc-TPP1, Fc-TPP8 and Fc-TPP11 fusion proteins for the b1b2 domains of NRP1 and NRP2 were analyzed by ELISA (Enzyme Linked Immunosorbent Assay).
To examine specificity for NRP1, the control VEGF165A and Fc, A22p, and each of the fusion proteins wherein the selected peptide that binds specifically to NRP1 is fused to the antibody heavy-chain constant Fc region, was biotinylated using a NHS-biotin kit (SIGMA-ALDRICH co., USA).
1 μg of each of NRP1-b1b2 (273-586) protein, NRP2-b1b2 (275-595) protein and the control group VEGFR2 (46-753) was immobilized in each well of a 96-well EIA/RIA plate (COSTAR Corning In., USA) at room temperature for 1 hour, and then washed three times with 0.1% PBST (0.1% Tween20, pH 7.4, 137 mM NaCl, 10 mM Phosphate, 2.7 mM KCl, SIGMA-ALDRICH co., USA) for 10 minutes. After binding with 5% skim milk (5% Skim milk, pH 7.4, 137 mM NaCl, 10 mM Phosphate, 2.7 mM KCl, SIGMA-ALDRICH co., USA) for 1 hour, each well was washed three times with 0.1% PBST (0.1% Tween20, pH 7.4, 137 mM NaCl, 10 mM Phosphate, 2.7 mM KCl, SIGMA-ALDRICH co., USA) for 10 minutes. […] Each well was bound with AP-conjugated anti-biotin antibody (alkaline phosphatase-conjugated anti-biotin mAb, Sigma, USA), and then reacted with pNPP ([…], SIGMA-ALDRICH co., USA), and the absorbance at 405 nm was measured.

T1 sequence (O14786 273-586): as above

Row | lower affinity than Fc-TPP11 for NRP1-b1b2 protein [2] | Substance | binding to 100 nM biotinylated NRP1-b1b2 (mean fluorescence intensity) (biotinylated NRP1-b1b2) | competitive binding of synthesized peptide with RPARPAR peptide and VEGF165A [1]
1 | – | TPP1: NRP1-targeting peptide HTPGNSNQFVLTSTRPPR, SEQ ID NO: 1 (Synthetic construct (TPP1)) | showed higher mean fluorescence intensities | –
2 | – | TPP8: NRP1-targeting peptide HTPGIATRTPR, SEQ ID NO: 2 (Synthetic construct (TPP8)) | showed higher mean fluorescence intensities | –
3 | at least 100 fold | TPP11: NRP1-targeting peptide HTPGNSKPTRTPRR, SEQ ID NO: 3 (Synthetic construct (TPP11)) | showed higher mean fluorescence intensities | inhibited the binding of the RPARPAR peptide and VEGF165 to NRP1
